Laboratory results reported in the supplement of paper PMC9112550, “Optimization of the antimicrobial peptide Bac7 by deep mutational scanning” (BMC Biology, 2022).

System: Escherichia coli TOP10
Test: shrunken log2 fold change of peptide-encoding DNA abundance (4.5 h post-induction vs induction); higher = less antimicrobial activity (less host growth inhibition)
Settings: time post-induction: 4.5 h; library: site-saturation at positions 5, 18, 19, 20
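Also: peptides expressed intracellularly from a pBAD plasmid library in pooled LB shake-flask culture, induced with 0.3% L-arabinose, DNA abundance read by NGS, three biological replicates, DESeq2 with apeglm shrinkage.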

## RRIRKRPPRLPRPRPRPGAHPRP
  shrunken log2 fold change: 0.663

## RRIRVRPPRLPRPRPRPFLKPRP
  shrunken log2 fold change: -0.602

## RRIRWRPPRLPRPRPRPMLCPRP
  shrunken log2 fold change: 0.216

## RRIRLRPPRLPRPRPRPTHDPRP
  shrunken log2 fold change: 0.324

## RRIRFRPPRLPRPRPRPNCVPRP
  shrunken log2 fold change: -0.321

## RRIRVRPPRLPRPRPRPWYGPRP
  shrunken log2 fold change: -0.367

## RRIRYRPPRLPRPRPRPCYLPRP
  shrunken log2 fold change: -0.0778

## RRIRGRPPRLPRPRPRPDVDPRP
  shrunken log2 fold change: 1.82

## RRIRTRPPRLPRPRPRPKCLPRP
  shrunken log2 fold change: -0.0528

## RRIRLRPPRLPRPRPRPPGQPRP
  shrunken log2 fold change: 0.625

## RRIRRRPPRLPRPRPRPDNEPRP
  shrunken log2 fold change: 0.207

## RRIRTRPPRLPRPRPRPINMPRP
  shrunken log2 fold change: -0.0135

## RRIRGRPPRLPRPRPRPYVPPRP
  shrunken log2 fold change: -0.529

## RRIRIRPPRLPRPRPRPGNIPRP
  shrunken log2 fold change: -0.479

## RRIRCRPPRLPRPRPRPGPTPRP
  shrunken log2 fold change: 0.848

## RRIRGRPPRLPRPRPRPSKKPRP
  shrunken log2 fold change: 0.609

## RRIRMRPPRLPRPRPRPNGSPRP
  shrunken log2 fold change: -0.000925

## RRIRCRPPRLPRPRPRPPPGPRP
  shrunken log2 fold change: 1.47

## RRIRSRPPRLPRPRPRPDCSPRP
  shrunken log2 fold change: 0.0664

## RRIRERPPRLPRPRPRPLDSPRP
  shrunken log2 fold change: -0.344

## RRIRQRPPRLPRPRPRPQGWPRP
  shrunken log2 fold change: -0.151

## RRIRMRPPRLPRPRPRPWMGPRP
  shrunken log2 fold change: -0.33

## RRIRIRPPRLPRPRPRPQEFPRP
  shrunken log2 fold change: 0.0204

## RRIRSRPPRLPRPRPRPCDNPRP
  shrunken log2 fold change: -0.165

## RRIRDRPPRLPRPRPRPQYPPRP
  shrunken log2 fold change: -0.219

## RRIRRRPPRLPRPRPRPFYAPRP
  shrunken log2 fold change: -0.0129

## RRIRDRPPRLPRPRPRPWVMPRP
  shrunken log2 fold change: -0.167

## RRIRIRPPRLPRPRPRPAAIPRP
  shrunken log2 fold change: -0.199

## RRIRGRPPRLPRPRPRPNLTPRP
  shrunken log2 fold change: 0.374

## RRIRWRPPRLPRPRPRPSDHPRP
  shrunken log2 fold change: -0.474

## RRIRTRPPRLPRPRPRPIWYPRP
  shrunken log2 fold change: -0.601

## RRIRNRPPRLPRPRPRPRMYPRP
  shrunken log2 fold change: -0.613

## RRIRFRPPRLPRPRPRPFAEPRP
  shrunken log2 fold change: -0.348

## RRIRPRPPRLPRPRPRPKIDPRP
  shrunken log2 fold change: 0.0162

## RRIRFRPPRLPRPRPRPMDVPRP
  shrunken log2 fold change: -0.0444

## RRIRNRPPRLPRPRPRPFWCPRP
  shrunken log2 fold change: 0.000145

## RRIRHRPPRLPRPRPRPKRCPRP
  shrunken log2 fold change: -0.0661

## RRIRERPPRLPRPRPRPPYMPRP
  shrunken log2 fold change: -1.73

## RRIRFRPPRLPRPRPRPRAKPRP
  shrunken log2 fold change: 0.189

## RRIRVRPPRLPRPRPRPYKLPRP
  shrunken log2 fold change: -0.745

## RRIRFRPPRLPRPRPRPECRPRP
  shrunken log2 fold change: -0.0408

## RRIRPRPPRLPRPRPRPVQVPRP
  shrunken log2 fold change: -0.119

## RRIRYRPPRLPRPRPRPRHNPRP
  shrunken log2 fold change: -0.477

## RRIRKRPPRLPRPRPRPLPTPRP
  shrunken log2 fold change: 0.491

## RRIRTRPPRLPRPRPRPALVPRP
  shrunken log2 fold change: 0.0324

## RRIRLRPPRLPRPRPRPSPTPRP
  shrunken log2 fold change: 1.06

## RRIRRRPPRLPRPRPRPRQEPRP
  shrunken log2 fold change: 0.123

## RRIRMRPPRLPRPRPRPSHIPRP
  shrunken log2 fold change: -0.659

## RRIRYRPPRLPRPRPRPVYAPRP
  shrunken log2 fold change: -0.683

## RRIRIRPPRLPRPRPRPVWNPRP
  shrunken log2 fold change: -0.576

## RRIRQRPPRLPRPRPRPYCDPRP
  shrunken log2 fold change: -0.431

## RRIRVRPPRLPRPRPRPFIHPRP
  shrunken log2 fold change: -0.104

## RRIRVRPPRLPRPRPRPMWYPRP
  shrunken log2 fold change: -0.62

## RRIRIRPPRLPRPRPRPPKTPRP
  shrunken log2 fold change: -0.00537

## RRIRKRPPRLPRPRPRPRRNPRP
  shrunken log2 fold change: 0.316

## RRIRRRPPRLPRPRPRPSTVPRP
  shrunken log2 fold change: -0.117

## RRIRVRPPRLPRPRPRPHDWPRP
  shrunken log2 fold change: 0.00123

## RRIRFRPPRLPRPRPRPQSCPRP
  shrunken log2 fold change: -0.0102

## RRIRKRPPRLPRPRPRPIERPRP
  shrunken log2 fold change: 0.11

## RRIRERPPRLPRPRPRPRFCPRP
  shrunken log2 fold change: -0.0399

## RRIRRRPPRLPRPRPRPGWLPRP
  shrunken log2 fold change: 0.427

## RRIRARPPRLPRPRPRPMSYPRP
  shrunken log2 fold change: 0.163

## RRIRDRPPRLPRPRPRPAHCPRP
  shrunken log2 fold change: -0.0402

## RRIRRRPPRLPRPRPRPDLPPRP
  shrunken log2 fold change: 0.0159

## RRIRWRPPRLPRPRPRPMMQPRP
  shrunken log2 fold change: 0.195

## RRIRERPPRLPRPRPRPEICPRP
  shrunken log2 fold change: 0.162

## RRIRGRPPRLPRPRPRPEPWPRP
  shrunken log2 fold change: 0.655

## RRIRRRPPRLPRPRPRPLMCPRP
  shrunken log2 fold change: -0.13

## RRIRMRPPRLPRPRPRPVQFPRP
  shrunken log2 fold change: 0.276

## RRIRMRPPRLPRPRPRPIKWPRP
  shrunken log2 fold change: -0.00876

## RRIRNRPPRLPRPRPRPNQLPRP
  shrunken log2 fold change: -0.228

## RRIRPRPPRLPRPRPRPIVSPRP
  shrunken log2 fold change: -0.117

## RRIRVRPPRLPRPRPRPADCPRP
  shrunken log2 fold change: 0.0869

## RRIRRRPPRLPRPRPRPVQCPRP
  shrunken log2 fold change: -0.138

## RRIRGRPPRLPRPRPRPANQPRP
  shrunken log2 fold change: 0.329

## RRIRKRPPRLPRPRPRPEDPPRP
  shrunken log2 fold change: 2.99

## RRIRWRPPRLPRPRPRPWFMPRP
  shrunken log2 fold change: -0.222

## RRIRVRPPRLPRPRPRPKGAPRP
  shrunken log2 fold change: 0.553

## RRIRFRPPRLPRPRPRPCVRPRP
  shrunken log2 fold change: -0.0911

## RRIRNRPPRLPRPRPRPLKQPRP
  shrunken log2 fold change: 0.114

## RRIRDRPPRLPRPRPRPWNPPRP
  shrunken log2 fold change: -0.586

## RRIRMRPPRLPRPRPRPDNLPRP
  shrunken log2 fold change: -0.205

## RRIRARPPRLPRPRPRPWAVPRP
  shrunken log2 fold change: 0.295

## RRIRVRPPRLPRPRPRPTWDPRP
  shrunken log2 fold change: 0.178

## RRIRYRPPRLPRPRPRPWPHPRP
  shrunken log2 fold change: 0.0143

## RRIRSRPPRLPRPRPRPKPVPRP
  shrunken log2 fold change: 0.0648

## RRIRKRPPRLPRPRPRPETHPRP
  shrunken log2 fold change: 0.736

## RRIRARPPRLPRPRPRPMLGPRP
  shrunken log2 fold change: 0.211

## RRIRWRPPRLPRPRPRPLPQPRP
  shrunken log2 fold change: 0.248

## RRIRNRPPRLPRPRPRPVFQPRP
  shrunken log2 fold change: -0.623

## RRIRPRPPRLPRPRPRPCCKPRP
  shrunken log2 fold change: -0.247

## RRIRNRPPRLPRPRPRPSPPPRP
  shrunken log2 fold change: -0.0562

## RRIRNRPPRLPRPRPRPRKPPRP
  shrunken log2 fold change: -0.0565

## RRIRERPPRLPRPRPRPGWPPRP
  shrunken log2 fold change: 0.398

## RRIRCRPPRLPRPRPRPWIPPRP
  shrunken log2 fold change: -0.457

## RRIRNRPPRLPRPRPRPVNAPRP
  shrunken log2 fold change: 0.16

## RRIRNRPPRLPRPRPRPYCSPRP
  shrunken log2 fold change: -0.0619

## RRIRARPPRLPRPRPRPAIWPRP
  shrunken log2 fold change: 0.709

## RRIRCRPPRLPRPRPRPGCQPRP
  shrunken log2 fold change: 0.00667

## RRIRPRPPRLPRPRPRPKFDPRP
  shrunken log2 fold change: 0.163

## RRIRLRPPRLPRPRPRPYATPRP
  shrunken log2 fold change: -0.246

## RRIRKRPPRLPRPRPRPIYTPRP
  shrunken log2 fold change: -0.0648

## RRIRKRPPRLPRPRPRPSDGPRP
  shrunken log2 fold change: 0.178

## RRIRPRPPRLPRPRPRPDQEPRP
  shrunken log2 fold change: -0.151

## RRIRDRPPRLPRPRPRPMQPPRP
  shrunken log2 fold change: 0.0977

## RRIRCRPPRLPRPRPRPGYWPRP
  shrunken log2 fold change: 0.196

## RRIRDRPPRLPRPRPRPQTIPRP
  shrunken log2 fold change: -0.164

## RRIRARPPRLPRPRPRPTNGPRP
  shrunken log2 fold change: -0.0688

## RRIRWRPPRLPRPRPRPMRTPRP
  shrunken log2 fold change: 0.273

## RRIRRRPPRLPRPRPRPFHLPRP
  shrunken log2 fold change: -0.184

## RRIRKRPPRLPRPRPRPPKYPRP
  shrunken log2 fold change: -0.0749

## RRIRLRPPRLPRPRPRPRIRPRP
  shrunken log2 fold change: 0.103

## RRIRMRPPRLPRPRPRPYLYPRP
  shrunken log2 fold change: -0.0828

## RRIRKRPPRLPRPRPRPNFEPRP
  shrunken log2 fold change: 0.0868

## RRIRYRPPRLPRPRPRPYDSPRP
  shrunken log2 fold change: -0.0285

## RRIRYRPPRLPRPRPRPNTNPRP
  shrunken log2 fold change: -1.09

## RRIRMRPPRLPRPRPRPQFWPRP
  shrunken log2 fold change: 0.245

## RRIRRRPPRLPRPRPRPPCQPRP
  shrunken log2 fold change: 0.767

## RRIRLRPPRLPRPRPRPFYEPRP
  shrunken log2 fold change: -0.426

## RRIRPRPPRLPRPRPRPNFHPRP
  shrunken log2 fold change: -0.169

## RRIRPRPPRLPRPRPRPHTCPRP
  shrunken log2 fold change: -0.123

## RRIRPRPPRLPRPRPRPESPPRP
  shrunken log2 fold change: 0.161

## RRIRRRPPRLPRPRPRPFYRPRP
  shrunken log2 fold change: -0.0117

## RRIRKRPPRLPRPRPRPAARPRP
  shrunken log2 fold change: 0.742

## RRIRIRPPRLPRPRPRPDFRPRP
  shrunken log2 fold change: -0.371
